Experimental data from paper PMC3841736.

Molecular target: APC (UniProt P25054)
Test: Flag co-IP, immunoblot
Conditions: reference: wild-type Flag:α-catenin; sites Y177

**Q.** Which “binding against the reference” value does the source give for α-catenin (from UniProt P35221) Y177F here?
**A.** The value was “stronger”.
